# Values of other authors, collected in patent US10920265B2, “Compounds and methods for detection of enzymes that remove methyl succinyl groups from epsilon-amino lysine moieties” (Enzo Life Sciences, Inc., priority 2011, dated 2021).
# No end group written: not given here.
# What was measured:
# Conditions in all cases: varied NAD^+, Du et al., 2009; cited from earlier work
# SIRT5 = target: T1, SIRT5 (Homo sapiens, UniProt Q9NXA8); design: purchased Enzo Life Sciences BML-SE555
# T1 sequence (Q9NXA8 37-310): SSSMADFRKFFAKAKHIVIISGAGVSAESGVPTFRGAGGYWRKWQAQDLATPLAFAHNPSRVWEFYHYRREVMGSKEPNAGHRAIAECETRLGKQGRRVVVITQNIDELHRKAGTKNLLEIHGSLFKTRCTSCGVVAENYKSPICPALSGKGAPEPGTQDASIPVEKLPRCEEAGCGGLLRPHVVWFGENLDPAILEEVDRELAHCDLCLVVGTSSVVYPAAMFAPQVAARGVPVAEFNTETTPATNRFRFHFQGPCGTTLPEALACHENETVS
# SIRT3 = target: T2, SIRT3 (Homo sapiens, UniProt Q9NTG7)
# T2 construct: purchased ENZO Life Sciences BML-SE270
# T2 sequence (Q9NTG7 1-399): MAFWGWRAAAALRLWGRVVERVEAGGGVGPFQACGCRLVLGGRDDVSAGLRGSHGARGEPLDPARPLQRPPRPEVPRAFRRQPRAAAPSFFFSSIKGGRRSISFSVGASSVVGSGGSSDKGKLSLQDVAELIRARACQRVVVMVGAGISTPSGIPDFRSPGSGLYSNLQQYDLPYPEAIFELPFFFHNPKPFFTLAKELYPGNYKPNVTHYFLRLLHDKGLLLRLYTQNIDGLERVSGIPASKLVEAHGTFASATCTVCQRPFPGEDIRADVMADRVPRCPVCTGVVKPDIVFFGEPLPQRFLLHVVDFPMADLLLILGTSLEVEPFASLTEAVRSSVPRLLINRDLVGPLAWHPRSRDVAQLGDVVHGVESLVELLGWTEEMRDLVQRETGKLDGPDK
# SIRT1 = target: T3, SIRT1 (Homo sapiens, UniProt Q96EB6)
# T3 construct: purchased ENZO Life Sciences BML-SE239
# T3 sequence (Q96EB6 1-747): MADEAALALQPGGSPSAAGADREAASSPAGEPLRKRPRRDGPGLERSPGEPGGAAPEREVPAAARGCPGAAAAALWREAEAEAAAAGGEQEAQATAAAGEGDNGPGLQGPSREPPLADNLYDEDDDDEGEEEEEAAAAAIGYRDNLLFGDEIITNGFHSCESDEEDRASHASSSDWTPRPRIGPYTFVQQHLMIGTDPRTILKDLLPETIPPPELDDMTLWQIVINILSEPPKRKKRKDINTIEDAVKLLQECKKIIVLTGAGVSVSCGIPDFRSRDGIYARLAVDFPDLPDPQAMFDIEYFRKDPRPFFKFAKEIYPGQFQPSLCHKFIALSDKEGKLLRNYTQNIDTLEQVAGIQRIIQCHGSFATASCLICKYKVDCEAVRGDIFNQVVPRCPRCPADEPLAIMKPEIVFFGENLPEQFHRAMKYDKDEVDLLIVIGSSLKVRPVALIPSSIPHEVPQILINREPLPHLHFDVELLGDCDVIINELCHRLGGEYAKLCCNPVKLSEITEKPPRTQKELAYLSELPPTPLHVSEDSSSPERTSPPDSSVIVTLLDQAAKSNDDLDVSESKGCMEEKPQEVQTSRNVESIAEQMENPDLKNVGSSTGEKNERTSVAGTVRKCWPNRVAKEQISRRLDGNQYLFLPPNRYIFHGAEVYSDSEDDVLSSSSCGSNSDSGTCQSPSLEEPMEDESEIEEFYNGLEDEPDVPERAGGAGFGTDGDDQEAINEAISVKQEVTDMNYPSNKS
# SIRT2 = target: T4, SIRT2 (Homo sapiens, UniProt Q8IXJ6)
# T4 sequence (Q8IXJ6 1-389): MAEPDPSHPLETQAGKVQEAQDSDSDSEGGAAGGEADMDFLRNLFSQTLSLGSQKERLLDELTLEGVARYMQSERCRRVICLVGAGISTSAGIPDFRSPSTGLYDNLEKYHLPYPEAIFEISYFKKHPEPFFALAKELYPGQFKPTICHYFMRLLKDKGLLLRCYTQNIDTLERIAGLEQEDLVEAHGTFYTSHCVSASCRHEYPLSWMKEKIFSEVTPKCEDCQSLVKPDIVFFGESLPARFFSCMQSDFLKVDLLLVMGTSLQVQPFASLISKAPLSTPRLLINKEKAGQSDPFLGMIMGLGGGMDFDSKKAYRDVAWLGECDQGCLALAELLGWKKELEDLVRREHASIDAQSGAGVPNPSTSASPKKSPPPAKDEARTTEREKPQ
substance,measurement,setting,value
"Hist. H3 4-15, K9Ac: unlabeled peptide, histone H3 residues 4-15 acetylated on lysine-9 (KQTARK(Ac)STGGKA; UniProt P68431 5-16, looked up, fragment)",kcat,SIRT5,0.003 s⁻¹
same,kcat,SIRT3,0.009 s⁻¹
same,kcat,SIRT1,0.079 s⁻¹
same,kcat,SIRT2,0.021 s⁻¹
